Results on five molecules are retold here after article PMC4038064.

The target of experiment [1] is Neuropilin-1 domains b1b2 (Nrp1-b1b2). Kind of experiment: in vitro plate binding assay.
Experiment [2] has the same target. The experiment is described as follows: ITC.
Experiment [3] has the same target. Kind of experiment: in vitro plate binding assay. The source holds these as a separate data set.

Where two headings read alike, the source gives them in different places.

“Sema3A.2 peptide (Sema3A, furin cleavage site 2)”: the IC50 in experiment [1] amounted to 34 µM.
“Sema3E.3 peptide (Sema3E, furin cleavage site 3)”: in experiment [1], the IC50 is 0.76 µM.
As to WDQKKPRNPR [Sema3F C-terminal peptide, C-1 proline variant (S3F-PR)], in experiment [2], the Ka came out at 101000 M⁻¹, the Kd was 10 µM, the dH is -17 kcal/mol and the stoichiometry N stood at 1. The IC50 in experiment [3] was 4.7 µM.
Regarding WDQKKPRNRR [Sema3F C-terminal peptide, wild type (S3F-RR)], in experiment [2], the Kd amounted to 33 µM, the dH is -18.5 kcal/mol and the stoichiometry N amounted to 1. The molecule also had an IC50 in experiment [3] of 11 µM.
For WDQKKPRNDR [Sema3F C-terminal peptide, C-1 aspartate variant (S3F-DR)], in experiment [3], the IC50 is 28 µM.
